# Test results taken from article doi:10.1101/2024.11.26.625551 (bioRxiv, 2024).
# B1: nanobody NbA12 (VHH)
# VHH: QVQLQESGGGLVQAGGSLRLSCAASGFTFDDYAIGWFRQAPGKEREGVSCITSSDGSTYYADSVKGRFTISSDNAKNTVYLQMNSLKPEDTAVYYCAAESWPPLCHYSGMDYWGKGTQVTVSS
# B2: NbB7-GFP (VHH)
# VHH: QVQLQESGGGLVQAGGSLRLSCAVSGIRVNVNAMYWYRQAPGKQRELVAIITTFGSTNYADSAKGRFTISRDNTKNTVYLQMDNLKPEDTAVYYCNAPQFTDRYWGQGTQVTVSS
# B3: mouse Cavin1 HR1 domain (as crystallised with NbB7) (domain or fragment, UniProt O54724 45-155, looked up)
# chain: LIKSDQVNGVLVLSLLDKIIGAVDQIQLTQAQLEERQAEMEGAVQSIQGELSKLGKAHATTSNTVSKLLEKVRKVSVNVKTVRGSLERQAGQIKKLEVNEAELLRRRNFKV
# B4: nanobody NbB7 (VHH)
# VHH: QVQLQESGGGLVQAGGSLRLSCAVSGIRVNVNAMYWYRQAPGKQRELVAIITTFGSTNYADSAKGRFTISRDNTKNTVYLQMDNLKPEDTAVYYCNAPQFTDRYWGQGTQVTVSS
# Key:
# [1] = biological target: mouse Cavin1 HR1 domain (His-Ub construct) (Mus musculus (Mouse)., UniProt O54724); experiment: ITC
# [2] = biological target: zebrafish Cavin4b HR1 domain (Danio rerio, UniProt A0A8M1N3J3); experiment: ITC
# [3] = biological target: zebrafish Cavin4a HR1 domain (Danio rerio, UniProt A1L260); experiment: ITC
# Chain of zebrafish Cavin4a HR1 domain (A1L260 whole entry, looked up, the tested form may be a part): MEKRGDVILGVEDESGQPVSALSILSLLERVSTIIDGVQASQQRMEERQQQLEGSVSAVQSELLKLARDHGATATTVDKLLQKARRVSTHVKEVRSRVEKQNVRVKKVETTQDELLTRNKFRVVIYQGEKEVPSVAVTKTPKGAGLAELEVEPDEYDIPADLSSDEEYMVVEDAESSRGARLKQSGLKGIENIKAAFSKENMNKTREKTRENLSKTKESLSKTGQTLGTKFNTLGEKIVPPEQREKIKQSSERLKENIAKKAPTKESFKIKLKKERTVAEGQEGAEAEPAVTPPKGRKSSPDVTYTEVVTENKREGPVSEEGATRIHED
# [4] = biological target: His-MBP full-length mouse Cavin1 (Mus musculus (Mouse)., UniProt O54724); experiment: ITC
# Chain of His-MBP full-length mouse Cavin1 (O54724 whole entry, the tested form may be a part): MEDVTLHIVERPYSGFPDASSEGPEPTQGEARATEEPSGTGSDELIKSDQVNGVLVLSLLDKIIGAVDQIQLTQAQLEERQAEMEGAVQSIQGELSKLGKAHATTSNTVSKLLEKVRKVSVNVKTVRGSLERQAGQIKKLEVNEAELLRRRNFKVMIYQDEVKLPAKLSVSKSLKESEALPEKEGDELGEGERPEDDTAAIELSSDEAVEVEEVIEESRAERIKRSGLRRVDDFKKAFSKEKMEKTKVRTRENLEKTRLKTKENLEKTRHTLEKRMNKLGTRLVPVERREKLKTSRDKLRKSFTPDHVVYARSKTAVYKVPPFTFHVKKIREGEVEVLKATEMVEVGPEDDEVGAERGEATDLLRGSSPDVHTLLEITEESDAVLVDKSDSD
# [5] = biological target: mouse Cavin1 HR1 N-terminal fragment mC1-HR1(45-103) (Mus musculus, UniProt O54724); experiment: ITC
# [6] = biological target: GST-tagged mouse Cavin1 HR1 domain (Mus musculus, UniProt O54724); experiment: pull-down
# [7] = biological target: endogenous CAV1 (HeLa) (Homo sapiens (HeLa), UniProt Q03135); experiment: co-IP
# Chain of endogenous CAV1 (HeLa) (Q03135 whole entry): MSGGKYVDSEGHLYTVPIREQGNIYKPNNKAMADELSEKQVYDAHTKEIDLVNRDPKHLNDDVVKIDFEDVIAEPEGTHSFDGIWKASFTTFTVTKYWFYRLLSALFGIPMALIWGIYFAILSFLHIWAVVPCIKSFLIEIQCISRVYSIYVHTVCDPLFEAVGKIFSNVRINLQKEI
# [8] = biological target: endogenous Cavin1 (HeLa) (Homo sapiens (HeLa), UniProt Q6NZI2); experiment: co-IP
# Chain of endogenous Cavin1 (HeLa) (Q6NZI2 whole entry): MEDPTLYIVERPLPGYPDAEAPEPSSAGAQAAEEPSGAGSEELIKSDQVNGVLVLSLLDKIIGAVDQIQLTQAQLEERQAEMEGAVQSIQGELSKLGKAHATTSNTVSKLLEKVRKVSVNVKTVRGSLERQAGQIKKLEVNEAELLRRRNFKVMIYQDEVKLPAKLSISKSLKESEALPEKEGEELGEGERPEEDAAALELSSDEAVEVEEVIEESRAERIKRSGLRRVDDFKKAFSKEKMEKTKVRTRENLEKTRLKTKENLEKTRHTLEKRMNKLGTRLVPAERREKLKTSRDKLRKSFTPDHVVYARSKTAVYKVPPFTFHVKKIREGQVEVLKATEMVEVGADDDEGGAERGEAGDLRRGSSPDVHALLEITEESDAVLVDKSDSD
# [9] = biological target: the molecule itself; experiment: crystal structure
binder,measurement,setting,value
B1,binding result,[1],binds
same,binding result,[2],no binding
same,binding result,[3],no binding
same,binding result,[4],binds
same,binding result,[5],binds
same,binding result,[6],binds
B2,binding result,[7],binds
same,binding result,[8],binds
B3,stoichiometry N,[9],3
B4,Kd,[1],520 nM
same,binding result,[2],no binding
